Experimental data published in patent US20090202549A1 (published 2009).

Columns and labels:
Assay in all cases: capture assay, relative binding affinity of p40 mAb to p40 muteins (FIG. 4)
[1] = target: T1, human p40 single mutant S43R (human, UniProt P29460 23-328)
T1 construct: transiently expressed in HEK293E cells, supernatant used
T1 sequence: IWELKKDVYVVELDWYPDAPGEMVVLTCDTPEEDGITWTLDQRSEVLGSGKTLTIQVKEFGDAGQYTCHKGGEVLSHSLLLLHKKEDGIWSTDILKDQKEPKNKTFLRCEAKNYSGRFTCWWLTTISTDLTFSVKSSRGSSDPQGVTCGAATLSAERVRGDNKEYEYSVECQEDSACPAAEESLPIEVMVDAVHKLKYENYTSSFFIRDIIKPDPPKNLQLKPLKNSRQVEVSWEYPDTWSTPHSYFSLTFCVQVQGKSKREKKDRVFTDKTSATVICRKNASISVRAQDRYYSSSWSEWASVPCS
Procedure: (§1) In brief, MSD high bind plates (Meso Scale Discovery, MD) were coated with 5 μl of a capture monoclonal antibody (5 μg/ml) at room temperature for 1 hour. […] One-hundred and fifty (150) μl of 5% MSD Blocker A buffer was added to each well and incubated for 1 hr at room temperature. Plates were washed three times with 0.1 M HEPES buffer (pH 7.4). These protein-charged ELISA plates were incubated with 25 μl of different transiently expressed p40 mutant supernatants (1:10 dilution with 0.1 M HEPES buffer, pH 7.4) for 1 hr at room temperature. The plates were washed three times with 0.1 M HEPES buffer (pH 7.4). Twenty-five (25) μl of different concentrations of MSD Sulfo-TAG labeled p40 mAb, ranging from 0 to 20 μg/ml, were dispensed to micro-wells. After incubation for 2 hrs shaking at room temperature, plates were washed 3 times with 0.1 M HEPES buffer (pH 7.4). One hundred and fifty (150) μl of diluted MSD Read Buffer T was dispensed into each well and the plates were analyzed with a SECTOR imager (MSD).
(§2) The relative binding affinity of p40 mAb to different mutant proteins was further analyzed by a capture assay. […] The other mutations, M23T, L40T and S43R, in the interface, each reduced binding by approximately 40%. E45A reduced binding by about 70%.

[2] = target: T2, human p40 single mutant E45A (human, UniProt P29460 23-328)
T2 construct: transiently expressed in HEK293E cells, supernatant used
T2 sequence: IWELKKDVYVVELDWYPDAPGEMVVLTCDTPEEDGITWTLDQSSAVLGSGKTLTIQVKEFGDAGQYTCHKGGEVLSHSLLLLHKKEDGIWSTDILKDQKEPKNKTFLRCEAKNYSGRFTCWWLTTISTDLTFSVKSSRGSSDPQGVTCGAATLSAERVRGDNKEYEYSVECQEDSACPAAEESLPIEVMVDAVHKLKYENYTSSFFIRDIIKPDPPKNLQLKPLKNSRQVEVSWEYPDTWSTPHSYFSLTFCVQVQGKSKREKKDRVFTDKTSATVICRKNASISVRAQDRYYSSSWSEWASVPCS
Procedure: as §1, §2

[3] = target: T3, human p40 single mutant M23T (human, UniProt P29460 23-328)
T3 construct: transiently expressed in HEK293E cells, supernatant used
T3 sequence: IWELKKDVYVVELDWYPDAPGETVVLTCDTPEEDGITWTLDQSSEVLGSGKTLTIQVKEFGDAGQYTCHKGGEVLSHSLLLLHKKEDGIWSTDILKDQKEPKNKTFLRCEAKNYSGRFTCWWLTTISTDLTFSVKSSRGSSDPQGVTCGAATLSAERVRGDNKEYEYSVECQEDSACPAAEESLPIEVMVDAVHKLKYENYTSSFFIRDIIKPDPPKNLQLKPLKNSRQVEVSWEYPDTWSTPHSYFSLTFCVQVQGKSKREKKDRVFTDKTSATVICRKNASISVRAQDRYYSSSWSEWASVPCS
Procedure: as §1, §2

[4] = target: T4, human p40 single mutant L40T (human, UniProt P29460 23-328)
T4 construct: transiently expressed in HEK293E cells, supernatant used
T4 sequence: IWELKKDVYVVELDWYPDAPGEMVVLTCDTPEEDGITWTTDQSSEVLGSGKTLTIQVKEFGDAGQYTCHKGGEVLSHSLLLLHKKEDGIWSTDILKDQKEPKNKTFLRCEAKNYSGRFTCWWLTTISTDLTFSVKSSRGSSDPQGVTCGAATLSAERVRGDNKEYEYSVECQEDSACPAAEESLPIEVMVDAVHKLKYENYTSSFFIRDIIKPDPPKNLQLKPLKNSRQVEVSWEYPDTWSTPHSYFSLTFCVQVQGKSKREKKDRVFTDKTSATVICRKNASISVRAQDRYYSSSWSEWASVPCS
Procedure: as §1, §2

- reduction of binding (relative binding affinity) [1]: ~40%
- reduction of binding (relative binding affinity) [2]: ~70%
- reduction of binding (relative binding affinity) [3]: ~40%
- reduction of binding (relative binding affinity) [4]: ~40%
B1: p40 mAb (fully human monoclonal antibody directed against the p40 subunit of human IL-12 and IL-23) (antibody, V domains shown)
VH: EVQLVQSGAEVKKPGESLKISCKGSGYSFTTYWLGWVRQMPGKGLDWIGIMSPVDSDIRYSPSFQGQVTMSVDKSITTAYLQWNSLKASDTAMYYCARRRPGQGYFDFWGQGTLVTVSS
VL: DIQMTQSPSSLSASVGDRVTITCRASQGISSWLAWYQQKPEKAPKSLIYAASSLQSGVPSRFSGSGSGTDFTLTISSLQPEDFATYYCQQYNIYPYTFGQGTKLEIKR
notes: Fully human IgG made in a mammalian cell line; also called IL-12 p40 antibody; IL-12p40 antibody
